Residue numbers refer to the chain shown, from its start. Names and notes keep the numbering of the source.
Columns and labels:
[1] = target: peptides containing PQL
[2] = target: T1, 26mer peptide of γ-gliadin
T1 chain: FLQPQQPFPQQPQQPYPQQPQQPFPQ

[3] = target: T2, 33mer peptide of α-gliadin
T2 chain: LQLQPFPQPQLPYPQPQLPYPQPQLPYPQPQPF

[4] = target: peptides containing PQQ
[5] = target: DQ2.5-glia-ω1
[6] = target: DQ2.5-glia-α1a
[7] = target: T3, PFPQPQQPF peptide
T3 chain: PFPQPQQPF

[8] = target: T4, PFPQPQLPY peptide
T4 chain: PFPQPQLPY

B1: Kuma020 (protein)
chain: AAPTAYTPLDVAQAYQFPEGLDGQGQCIAIIELGGGYDEASLAQYFASLGVPAPQVVSVSVDGASNQPTGDPKGPDGEVELDIEVAGALAPGAKFAVYFAPDTTAGFLDAITTAIHDPTLKPSVVSISWSGPEDSWTSAAIAAMNRAFLDAAALGVTVLAAAGDSGSTSGEQDGLYHVHFPAASPYVLACGGTRLVASGGRIAQETVWNDGPDGGATGGGVSRIFPLPAWQEHANVPPSANPGASSGRGVPDLAGNADPATGYEVVIDGEATVTGGTSAVAPLFAALVARINQKLGKAVGYLNPTLYQLPADVFHDITEGNNDIANRAQIYQAGPGWDPCTGLGSPIGVRLLQALLPSASQPQPGSTENLYFQSGALEHHHHHH
- Activity Improvement over Background (Kuma010) [1]: 7-19x (PQL)
- appearance of peptide breakdown products over time [2]: Kuma020 demonstrated a moderate amount of activity on both peptides
- appearance of peptide breakdown products over time [3]: Kuma020 demonstrated a moderate amount of activity on both peptides
- Activity Improvement over Background (Kuma010) [4]: 15-35x (PQQ)

B2: Kuma040 (protein)
chain: B1 chain with E80T, S130A, S169G, H179F, D210Q, A260Q
- Activity Improvement over Background (Kuma010) [1]: 35-50x (PQL)
- appearance of peptide breakdown products over time [2]: Kuma040 demonstrated activity almost as potent as Kuma030 especially against the 26mer peptide
- appearance of peptide breakdown products over time [3]: Kuma040 demonstrated activity almost as potent as Kuma030 especially against the 26mer peptide
- Kcat [5]: 24.6 s⁻¹
- Km [5]: 15.3 mM
- Vmax [5]: 2.46e-06 M/s
- kcat/Km [5]: 1600 M⁻¹ s⁻¹
- Activity Improvement over Background (Kuma010) [4]: 30-40x (PQQ);
- Kcat [6]: 16.3 s⁻¹
- Km [6]: 0.86 mM
- Vmax [6]: 1.49e-06 M/s
- kcat/Km [6]: 19100 M⁻¹ s⁻¹

B3: Kuma021 (protein)
chain: AAPTAYTPLDVAQAYQFPEGLDGQGQCIAIIELGGGYDEASLAQYFASLGVPAPQVVSVSVDGASNQPTGDPKGPDGEVELDIEVAGALAPGAKFAVYFAPDTTAGFLDAITTAIHDPTLKPSVVSISWSGPEDSWTSAAIAAMNRAFLDAAALGVTVLAAAGDSGSTSGEQDGLYHVHFPAASPYVLACGGTRLVASGGRIAQETVWNQGPDGGATGGGVSRIFPLPAWQEHANVPPSANPGASSGRGVPDLAGNADPQTGYEVVIDGEATVTGGTSAVAPLFAALVARINQKLGKAVGYLNPTLYQLPADVFHDITEGNNDIANRAQIYQAGPGWDPCTGLGSPIGVRLLQALLPSASQPQP
- Activity Improvement over Background (Kuma020) [1]: 1-2x (PQL)
- Activity Improvement over Background (Kuma020) [4]: 1.2-2.5x (PQQ)

B4: Kuma031 (protein)
chain: B3 chain with K73E, E80T, S165Q
- Activity Improvement over Background (Kuma030) [1]: No change (PQL);

B5: Kuma032 (protein)
chain: B3 chain with K73E, E80T, S165Q
- Activity Improvement over Background (Kuma031) [1]: No change (PQL);
- concentration of peptide breakdown product PFPQPQ over time [6]: Kuma032 and Kuma042 demonstrate comparable activity as Kuma030 and Kuma040

B6: Kuma041 (protein)
chain: B3 chain with E80T, S130A, S169G, H179F
- Activity Improvement over Background (Kuma040) [1]: 1.0-1.2x (PQL)

B7: Kuma042 (protein)
chain: B3 chain with E80T, S130A, S169G, H179F
- Activity Improvement over Background (Kuma041) [1]: 1.2-1.5x (PQL)
- concentration of peptide breakdown product PFPQPQ over time [6]: Kuma042 even shows a slight increase in activity against this substrate compared to Kuma040

B8: Kuma050 (protein)
chain: B1 chain with K73E, E80T, L81V, S165Q, D210Q, A260Q, T274I
- Activity Improvement over Background (Kuma021) [1]: 1.5-2x (PQL)
- appearance of peptide breakdown products over time [2]: very poor activity on the 26mer peptide
- appearance of peptide breakdown products over time [3]: Kuma050 demonstrated good activity on the 33mer peptide
- Kcat [5]: 27.8 s⁻¹
- Km [5]: 5 mM
- Vmax [5]: 2.78e-06 M/s
- kcat/Km [5]: 56 M⁻¹ s⁻¹
- Activity Improvement over Background (Kuma021) [4]: 0.01-0.2x (PQQ)
- Kcat [6]: 14.2 s⁻¹
- Km [6]: 2.5 mM
- Vmax [6]: 1.42e-06 M/s
- kcat/Km [6]: 5610 M⁻¹ s⁻¹

B9: Kuma070 (protein)
chain: B1 chain with E80T, S130A, G131M, S169G, H179F, D210Q, A260Q
- Activity Improvement over Background (Kuma040) [5]: 2-4x (PQQ)
- Activity Improvement over Background (Kuma040) [6]: 2-3x (PQL)

B10: Kuma062 (protein)
chain: B3 chain with K73E, E80T, G131M, S165Q
- detection of full-length peptide and of the PFPQPQ breakdown product over time [5]: Kuma062 demonstrates a higher level of enzymatic activity than Kuma030 or Kuma040

B11: Kuma010 (protein)
chain: AAPTAYTPLDVAQAYQFPEGLDGQGQCIAIIELGGGYDEASLAQYFASLGVPAPQVVSVSVDGASNQPTGDPKGPDGEVELDIEVAGALAPGAKFAVYFAPDTTAGFLDAITTAIHDPTLKPSVVSISWSGPEDSWTSAAIAAMNRAFLDAAALGVTVLAAAGDSGSTGGEQDGLYHVHFPAASPYVLACGGTRLVASGGRIAQETVWNDGPDGGATGGGVSRIFPLPAWQEHANVPPSANPGASSGRGVPDLAGNADPATGYEVVIDGEATVIGGTSAVAPLFAALVARINQKLGKAVGYLNPTLYQLPADVFHDITEGNNDIANRAQIYQAGPGWDPCTGLGSPIGVRLLQALLPSASQPQGSTENLYFQSGALEHHHHHH
- Kcat [5]: 1.2 s⁻¹
- Km [5]: 16.4 mM
- Vmax [5]: 1.22e-07 M/s
- kcat/Km [5]: 74 M⁻¹ s⁻¹
- Kcat [6]: 3.7 s⁻¹
- Km [6]: 4.6 mM
- Vmax [6]: 3.7e-07 M/s
- kcat/Km [6]: 819 M⁻¹ s⁻¹

B12: Kuma011-D402Q (protein)
chain: AAPTAYTPLDVAQAYQFPEGLDGQGQCIAIIELGGGYDEASLAQYFASLGVPAPQVVSVSVDGASNQPTGDPKGPDGEVELDIEVAGALAPGAKFAVYFAPDTTAGFLDAITTAIHDPTLKPSVVSISWSGPEDSWTSAAIAAMNRAFLDAAALGVTVLAAAGDSGSTGGEQDGLYHVHFPAASPYVLACGGTRLVASGGRIAQETVWNDGPQGGATGGGVSRIFPLPAWQEHANVPPSANPGASSGRGVPDLAGNADPATGYEVVIDGEATVIGGTSAVAPLFAALVARINQKLGKAVGYLNPTLYQLPADVFHDITEGNNDIANRAQIYQAGPGWDPCTGLGSPIGVRLLQALLPSASQPQ
- % Improvement on PFPQPQQPF (SEQ ID NO: 68) [7]: 111%
- % Improvement on PFPQPQLPY (SEQ ID NO: 67) [8]: 164%

B13: Kuma011-T406S (protein)
chain: B12 chain with Q213D, T217S
- % Improvement on PFPQPQQPF (SEQ ID NO: 68) [7]: 101%
- % Improvement on PFPQPQLPY (SEQ ID NO: 67) [8]: 84%

B14: Kuma011-A449E (protein)
chain: B12 chain with Q213D, A260E
- % Improvement on PFPQPQQPF (SEQ ID NO: 68) [7]: 208%
- % Improvement on PFPQPQLPY (SEQ ID NO: 67) [8]: 149%

B15: Kuma010/011 A449N (protein)
chain: B12 chain with Q213D, A260N
- % Improvement on PFPQPQQPF (SEQ ID NO: 68) [7]: 118%
- % Improvement on PFPQPQLPY (SEQ ID NO: 67) [8]: 119%

B16: Kuma011-T461R (protein)
chain: B12 chain with Q213D, T272R
- % Improvement on PFPQPQQPF (SEQ ID NO: 68) [7]: 86%
- % Improvement on PFPQPQLPY (SEQ ID NO: 67) [8]: 120%

B17: Kuma011-I463A (protein)
chain: B12 chain with Q213D, I274A
- % Improvement on PFPQPQQPF (SEQ ID NO: 68) [7]: 234%
- % Improvement on PFPQPQLPY (SEQ ID NO: 67) [8]: 51%

B18: Kuma011-I463L (protein)
chain: B12 chain with Q213D, I274L
- % Improvement on PFPQPQQPF (SEQ ID NO: 68) [7]: 22%
- % Improvement on PFPQPQLPY (SEQ ID NO: 67) [8]: 124%

B19: Kuma011-I463M (protein)
chain: B12 chain with Q213D, I274M
- % Improvement on PFPQPQQPF (SEQ ID NO: 68) [7]: 53%
- % Improvement on PFPQPQLPY (SEQ ID NO: 67) [8]: 123%

Reference: patent publication US20180142226
